Results as given in patent US20120316071A1 (published 2012).
Residue numbers refer to the chain shown, from its start. Names and notes keep the numbering of the source.

B1: Fab VH5-51_IGHD5-18*01>3_IGHJ4*01 G100K/G104T G24T/S28R/G35V (H:KT TRV) & V3-4_IGLJ1*01 S32A (Fab, V domains shown)
VH: EVQLVQSGAEVKKPGESLKISCKTSGYRFTSYWIVWVRQMPGKGLEWMGIIYPGDSDTRYSPSFQGQVTISADKSISTAYLQWSSLKASDTAMYYCARRKYSYTYDYFDYWGQGTLVTVSS
VL: QTVVTQEPSFSVSPGGTVTLTCGLSSGSVSTAYYPSWYQQTPGQAPRTLIYSTNTRSSGVPDRFSGSILGNKAALTITGAQADDESDYYCVLYMGSGISYVFGTGTKVTVL
notes: Fab; expressed in E. coli with CH1 (Plasmid A, His6 and Flag tags) and lambda CL (Plasmid E); also called H:KT TRV & S32A
B2: Fab VH5-51_IGHD5-18*01>3_IGHJ4*01 G100K/G104T G24T/S28R/G35V (H:KT TRV) & V3-4_IGLJ1*01 S52A (Fab, V domains shown)
VH: B1 VH
VL: B1 VL with A32S, S52A
notes: Fab; expressed in E. coli with CH1 (Plasmid A, His6 and Flag tags) and lambda CL (Plasmid E); also called H:KT TRV & S52A
B3: Fab VH5-51_IGHD5-18*01>3_IGHJ4*01 G100K/G104T G24T/S28R/G35V (H:KT TRV) & V3-4_IGLJ1*01 T78K (Fab, V domains shown)
VH: B1 VH
VL: B1 VL with A32S, T78K
notes: Fab; expressed in E. coli with CH1 (Plasmid A, His6 and Flag tags) and lambda CL (Plasmid E); also called H:KT TRV & T78K
B4: Fab VH5-51_IGHD5-18*01>3_IGHJ4*01 G100K/G104T G24T/S28R/G35V (H:KT TRV) & V3-4_IGLJ1*01 Y93A (Fab, V domains shown)
VH: B1 VH
VL: B1 VL with A32S, Y93A
notes: Fab; expressed in E. coli with CH1 (Plasmid A, His6 and Flag tags) and lambda CL (Plasmid E); also called H:KT TRV & Y93A
B5: Fab VH5-51_IGHD5-18*01>3_IGHJ4*01 G100K/G104T G24T/S28R/G35V (H:KT TRV) & V3-4_IGLJ1*01 G27A (Fab, V domains shown)
VH: B1 VH
VL: B1 VL with G27A, A32S
notes: Fab; expressed in E. coli with CH1 (Plasmid A, His6 and Flag tags) and lambda CL (Plasmid E); also called H:KT TRV & G27A
B6: Fab VH5-51_IGHD5-18*01>3_IGHJ4*01 G100K/G104T G24T/S28R/G35V (H:KT TRV) & V3-4_IGLJ1*01 T53A (Fab, V domains shown)
VH: B1 VH
VL: B1 VL with A32S, T53A
notes: Fab; expressed in E. coli with CH1 (Plasmid A, His6 and Flag tags) and lambda CL (Plasmid E); also called H:KT TRV & T53A
B7: Fab VH5-51_IGHD5-18*01>3_IGHJ4*01 G100K/G104T G24T/S28R/G35V (H:KT TRV) & V3-4_IGLJ1*01 G97A (Fab, V domains shown)
VH: B1 VH
VL: B1 VL with A32S, G97A
notes: Fab; expressed in E. coli with CH1 (Plasmid A, His6 and Flag tags) and lambda CL (Plasmid E); also called H:KT TRV & G97A
B8: Fab VH5-51_IGHD5-18*01>3_IGHJ4*01 G100K/G104T G24T/S28R/G35V (H:KT TRV) & V3-4_IGLJ1*01 L92A (Fab, V domains shown)
VH: B1 VH
VL: B1 VL with A32S, L92A
notes: Fab; expressed in E. coli with CH1 (Plasmid A, His6 and Flag tags) and lambda CL (Plasmid E); also called H:KT TRV & L92A
B9: Fab VH5-51_IGHD5-18*01>3_IGHJ4*01 G100K/G104T G24T/S28R/G35V (H:KT TRV) & V3-4_IGLJ1*01 G95A (Fab, V domains shown)
VH: B1 VH
VL: B1 VL with A32S, G95A
notes: Fab; expressed in E. coli with CH1 (Plasmid A, His6 and Flag tags) and lambda CL (Plasmid E); also called H:KT TRV & G95A
B10: Fab VH5-51_IGHD5-18*01>3_IGHJ4*01 G100K/G104T G24T/S28R/G35V (H:KT TRV) & V3-4_IGLJ1*01 M94A (Fab, V domains shown)
VH: B1 VH
VL: B1 VL with A32S, M94A
notes: Fab; expressed in E. coli with CH1 (Plasmid A, His6 and Flag tags) and lambda CL (Plasmid E); also called H:KT TRV & M94A
B11: Fab VH5-51_IGHD5-18*01>3_IGHJ4*01 G100K/G104T G24T/S28R/G35V (H:KT TRV) & V3-4_IGLJ1*01 P35A (Fab, V domains shown)
VH: B1 VH
VL: B1 VL with A32S, P35A
notes: Fab; expressed in E. coli with CH1 (Plasmid A, His6 and Flag tags) and lambda CL (Plasmid E); also called H:KT TRV & P35A
B12: Fab VH5-51_IGHD5-18*01>3_IGHJ4*01 G100K/G104T G24T/S28R/G35V (H:KT TRV) & V3-4_IGLJ1*01 G23A (Fab, V domains shown)
VH: B1 VH
VL: B1 VL with G23A, A32S
notes: Fab; expressed in E. coli with CH1 (Plasmid A, His6 and Flag tags) and lambda CL (Plasmid E); also called H:KT TRV & G23A
B13: Fab VH5-51_IGHD5-18*01>3_IGHJ4*01 G100K/G104T G24T/S28R/G35V (H:KT TRV) & V3-4_IGLJ1*01 T78E (Fab, V domains shown)
VH: B1 VH
VL: B1 VL with A32S, T78E
notes: Fab; expressed in E. coli with CH1 (Plasmid A, His6 and Flag tags) and lambda CL (Plasmid E); also called H:KT TRV & T78E
B14: Fab VH5-51_IGHD5-18*01>3_IGHJ4*01 G100K/G104T G24T/S28R/G35V (H:KT TRV) & V3-4_IGLJ1*01 S25A (Fab, V domains shown)
VH: B1 VH
VL: B1 VL with S25A, A32S
notes: Fab; expressed in E. coli with CH1 (Plasmid A, His6 and Flag tags) and lambda CL (Plasmid E); also called H:KT TRV & S25A
B15: Fab VH5-51_IGHD5-18*01>3_IGHJ4*01 G100K/G104T G24T/S28R/G35V (H:KT TRV) & V3-4_IGLJ1*01 S26A (Fab, V domains shown)
VH: B1 VH
VL: B1 VL with S26A, A32S
notes: Fab; expressed in E. coli with CH1 (Plasmid A, His6 and Flag tags) and lambda CL (Plasmid E); also called H:KT TRV & S26A
B16: Fab VH5-51_IGHD5-18*01>3_IGHJ4*01 G100K/G104T G24T/S28R/G35V (H:KT TRV) & V3-4_IGLJ1*01 V91A (Fab, V domains shown)
VH: B1 VH
VL: B1 VL with A32S, V91A
notes: Fab; expressed in E. coli with CH1 (Plasmid A, His6 and Flag tags) and lambda CL (Plasmid E); also called H:KT TRV & V91A
B17: Fab VH5-51_IGHD5-18*01>3_IGHJ4*01 G100K/G104T G24T/S28R/G35V (H:KT TRV) & V3-4_IGLJ1*01 L24A (Fab, V domains shown)
VH: B1 VH
VL: B1 VL with L24A, A32S
notes: Fab; expressed in E. coli with CH1 (Plasmid A, His6 and Flag tags) and lambda CL (Plasmid E); also called H:KT TRV & L24A
B18: Fab VH5-51_IGHD5-18*01>3_IGHJ4*01 G100K/G104T G24T/S28R/G35V (H:KT TRV) & V3-4_IGLJ1*01 Y34A (Fab, V domains shown)
VH: B1 VH
VL: B1 VL with A32S, Y34A
notes: Fab; expressed in E. coli with CH1 (Plasmid A, His6 and Flag tags) and lambda CL (Plasmid E); also called H:KT TRV & Y34A
B19: Fab VH5-51_IGHD5-18*01>3_IGHJ4*01 G100K/G104T G24T/S28R/G35V (H:KT TRV) & V3-4_IGLJ1*01 V29A (Fab, V domains shown)
VH: B1 VH
VL: B1 VL with V29A, A32S
notes: Fab; expressed in E. coli with CH1 (Plasmid A, His6 and Flag tags) and lambda CL (Plasmid E); also called H:KT TRV & V29A
B20: Fab VH5-51_IGHD5-18*01>3_IGHJ4*01 G100K/G104T G24T/S28R/G35V (H:KT TRV) & V3-4_IGLJ1*01 I98A (Fab, V domains shown)
VH: B1 VH
VL: B1 VL with A32S, I98A
notes: Fab; expressed in E. coli with CH1 (Plasmid A, His6 and Flag tags) and lambda CL (Plasmid E); also called H:KT TRV & I98A
B21: Fab VH5-51_IGHD5-18*01>3_IGHJ4*01 G100K/G104T G24T/S28R/G35V (H:KT TRV) & V3-4_IGLJ1*01 S36A (Fab, V domains shown)
VH: B1 VH
VL: B1 VL with A32S, S36A
notes: Fab; expressed in E. coli with CH1 (Plasmid A, His6 and Flag tags) and lambda CL (Plasmid E); also called H:KT TRV & S36A
B22: Fab VH5-51_IGHD5-18*01>3_IGHJ4*01 G100K/G104T G24T/S28R/G35V (H:KT TRV) & V3-4_IGLJ1*01 Y33A (Fab, V domains shown)
VH: B1 VH
VL: B1 VL with A32S, Y33A
notes: Fab; expressed in E. coli with CH1 (Plasmid A, His6 and Flag tags) and lambda CL (Plasmid E); also called H:KT TRV & Y33A
B23: Fab VH5-51_IGHD5-18*01>3_IGHJ4*01 G100K/G104T G24T/S28R/G35V (H:KT TRV) & V3-4_IGLJ1*01 S99A (Fab, V domains shown)
VH: B1 VH
VL: B1 VL with A32S, S99A
notes: Fab; expressed in E. coli with CH1 (Plasmid A, His6 and Flag tags) and lambda CL (Plasmid E); also called H:KT TRV & S99A

Target: T1, Recombinant Human DLL4 (human, UniProt Q9NR61 27-524)
T1 construct: also called delta-like protein 4; rHuman DLL4
Assay: ELISA, DLL4 coated on plate, Fab at 100 nM, absorbance at 450 nm minus blank

| ELISA Signal-blank (100 nM Fab) | Binder |
| --- | --- |
| 0.502 | B1 |
| 0.574 | B2 |
| 0.48 | B3 |
| 0.185 | B4 |
| 0.398 | B5 |
| 0.532 | B6 |
| 0.129 | B7 |
| 0.186 | B8 |
| 0.216 | B9 |
| 0.277 | B10 |
| 0.236 | B11 |
| 0.405 | B12 |
| 0.217 | B13 |
| 0.483 | B14 |
| 0.395 | B15 |
| 0.606 | B16 |
| 0.244 | B17 |
| 0.085 | B18 |
| 0.394 | B19 |
| 0.162 | B20 |
| 0.38 | B21 |
| 0.301 | B22 |
| 0.3 | B23 |
